Laboratory results from PMC4751435 (2016).
Blank lines part the entries; values can stand above or below the substance they belong to.

Key:
Test in all cases: BRET
[1] = target: luciferase-FOXP2 (wild-type, full-length 1-715) (UniProt O15409); conditions: HEK293 cells, n = 3, read off a plot
luciferase-FOXP1 = luciferase-FOXP1 (UniProt Q9H334); conditions: HEK293 cells, n = 3, read off a plot
[2] = target: luciferase-FOXP2 (wild-type, full-length 1-715) (UniProt O15409); conditions: HEK293 cells, n = 3, read off a plot; remark: listed apart in the source
[3] = target: YFP-SUMO1 alanine mutant (AA), P63165-1; conditions: HEK293 cells; n = 3; control donor (nuclear-targeted luciferase) est. 0.005; parent: est. 0.15; read off a plot
YFP-SUMO1 alanine mutant (AA), P63165-1, sequence (P63165 1-97, change not shown): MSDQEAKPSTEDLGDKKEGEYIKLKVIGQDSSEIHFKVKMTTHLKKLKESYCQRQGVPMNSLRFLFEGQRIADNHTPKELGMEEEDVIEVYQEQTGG

[4] = target: YFP-SUMO1 alanine mutant (AA), P63165-1; conditions: HEK293 cells; n = 3; control donor (nuclear-targeted luciferase) est. 0.004; parent: est. 0.15; read off a plot
[5] = target: YFP-SUMO2 alanine mutant (AA), P61956-1; conditions: HEK293 cells; n = 3; control donor (nuclear-targeted luciferase) est. 0.028; parent: est. 0.20; read off a plot
[6] = target: YFP-SUMO2 alanine mutant (AA), P61956-1; conditions: HEK293 cells; n = 3; control donor (nuclear-targeted luciferase) est. 0.028; parent: est. 0.20; read off a plot; remark: listed apart in the source
[7] = target: YFP-SUMO3 alanine mutant (AA), P55854-2; conditions: HEK293 cells; n = 3; control donor (nuclear-targeted luciferase) est. 0.034; parent: est. 0.23; read off a plot
YFP-SUMO3 alanine mutant (AA), P55854-2, sequence (P55854 other isoform, or with tags, fused parts or gaps, change not shown): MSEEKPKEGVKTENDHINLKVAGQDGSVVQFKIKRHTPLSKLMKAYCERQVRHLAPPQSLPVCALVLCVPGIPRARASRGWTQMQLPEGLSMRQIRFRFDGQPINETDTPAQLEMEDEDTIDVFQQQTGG

[8] = target: YFP-SUMO3 alanine mutant (AA), P55854-2; conditions: HEK293 cells; n = 3; control donor (nuclear-targeted luciferase) est. 0.034; parent: est. 0.23; read off a plot; remark: listed apart in the source
[9] = control donor (nuclear-targeted luciferase) est. 0.028, parent: est. 0.20
[10] = control donor (nuclear-targeted luciferase) est. 0.034, parent: est. 0.23

Substance: YFP-SUMO1 (wild-type, GG) (from UniProt P63165-1) AA
response ([1]; control donor (nuclear-targeted luciferase) est. 0.000, parent: est. 0.077): -0.017 BRET ratio | response ([1]; control donor (nuclear-targeted luciferase) est. 0.005, parent: est. 0.15): 0.019 BRET ratio | response (luciferase-FOXP1; control donor (nuclear-targeted luciferase) est. 0.000, parent: est. 0.15): -0.043 BRET ratio | response ([2]; control donor (nuclear-targeted luciferase) est. 0.004, parent: est. 0.15): 0.019 BRET ratio

Substance: m1; m10 FOXP2:K674R; SUMO1:AA
response [3]: 0.012 BRET ratio

Substance: m1; m11 FOXP2:K674R; SUMO2:AA
response [5]: 0.021 BRET ratio

Substance: m1; m11 FOXP2:R553H; SUMO2:AA
response [6]: 0.048 BRET ratio

Substance: m1; m12 FOXP2:K674R; SUMO3:AA
response [7]: 0.043 BRET ratio

Substance: m1; m12 FOXP2:R553H; SUMO3:AA
response [8]: 0.027 BRET ratio

Next, values leading:

response ([1]; control donor (nuclear-targeted luciferase) est. 0.012, parent: est. 0.13): 0.005 BRET ratio | response [1, 9]: 0.032 BRET ratio | response (luciferase-FOXP1; control donor (nuclear-targeted luciferase) est. 0.012, parent: est. 0.19): -0.036 BRET ratio | response [2, 9]: 0.032 BRET ratio
Substance: YFP-SUMO2 (wild-type, GG) (from UniProt P61956-1) AA

response ([1]; control donor (nuclear-targeted luciferase) est. 0.015, parent: est. 0.15): 0.012 BRET ratio | response [1, 10]: 0.065 BRET ratio | response (luciferase-FOXP1; control donor (nuclear-targeted luciferase) est. 0.015, parent: est. 0.20): -0.035 BRET ratio | response [2, 10]: 0.065 BRET ratio
Substance: YFP-SUMO3 (wild-type, GG) (from UniProt P55854) AA

response [4]: 0.008 BRET ratio
Substance: m1; m10 FOXP2:R553H; SUMO1:AA
